Measurements: PMC5858142, “A novel cold-adapted esterase from Enterobacter cloacae: Characterization and improvement of its activity and thermostability via the site of Tyr193Cys” (Microbial Cell Factories, 2018)

Experiments:
[1] = system: CC(=O)Oc1ccc([N+](=O)[O-])cc1; assay: purified protein; conditions: optimal pH 8.5, 40 °C, substrate not named, taken as pNPA (best substrate)
Lip = conditions: optimal pH 9.0, 40 °C; substrate not named, taken as pNPA (best substrate)

Compound | Km [1] [mM] | kcat [1] [s⁻¹] | kcat/Km [1] [M⁻¹ s⁻¹] | Km (Lip) [µM]
Lip (Enterobacter cloacae) | 0.643 ± 0.03 | 9.8 ± 0.09 | 15200 ± 210 | –
CC(=O)Oc1ccc([N+](=O)[O-])cc1 [C2, p-nitrophenyl acetate] | – | – | – | 363 ± 30
